The values below come from patent publication US20240425603A1.

In test [1] the target is human VEGFR2, over-expressed on HEK293 cells (human) (UniProt P35968). Briefly: flow cytometry, HEK cells over-expressing human VEGFR2.
For test [2], the target named is human VEGFR3, over-expressed on K562 cells (human) (UniProt P35916). Description: flow cytometry, K562 cells over-expressing human VEGFR3. A general note: A flow cytometer gives signals particle by particle.
In test [3] the target is Recombinant mouse VEGFR1-Fc (R&D Systems) (mouse) (UniProt P35969). Briefly: MSD ECL competition on plate-bound mouse VEGFR1-Fc; competitor biotin PlGF (2 nM).
Chain of Recombinant mouse VEGFR1-Fc (R&D Systems) (mouse) (P35969 27-759 limits assumed): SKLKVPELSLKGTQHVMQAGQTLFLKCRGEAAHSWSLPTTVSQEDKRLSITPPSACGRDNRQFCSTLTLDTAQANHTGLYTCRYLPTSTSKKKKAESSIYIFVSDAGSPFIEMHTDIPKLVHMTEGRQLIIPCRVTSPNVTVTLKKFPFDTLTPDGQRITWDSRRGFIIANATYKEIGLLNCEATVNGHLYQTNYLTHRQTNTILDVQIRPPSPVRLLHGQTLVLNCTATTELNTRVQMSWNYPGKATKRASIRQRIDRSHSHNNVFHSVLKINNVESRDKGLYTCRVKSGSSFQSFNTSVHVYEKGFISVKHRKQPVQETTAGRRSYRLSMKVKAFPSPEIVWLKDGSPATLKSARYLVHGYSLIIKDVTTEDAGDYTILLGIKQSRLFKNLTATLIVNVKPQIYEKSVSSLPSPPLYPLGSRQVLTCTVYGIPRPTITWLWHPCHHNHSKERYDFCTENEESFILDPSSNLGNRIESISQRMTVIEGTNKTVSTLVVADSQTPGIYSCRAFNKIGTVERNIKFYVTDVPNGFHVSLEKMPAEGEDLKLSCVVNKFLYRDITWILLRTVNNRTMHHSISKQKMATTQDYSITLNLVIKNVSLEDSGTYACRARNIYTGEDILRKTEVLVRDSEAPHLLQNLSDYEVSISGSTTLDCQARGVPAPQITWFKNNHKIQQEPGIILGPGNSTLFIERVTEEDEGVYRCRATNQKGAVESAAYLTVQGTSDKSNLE

Chain of human VEGFR3, over-expressed on K562 cells (human) (P35916 25-1363): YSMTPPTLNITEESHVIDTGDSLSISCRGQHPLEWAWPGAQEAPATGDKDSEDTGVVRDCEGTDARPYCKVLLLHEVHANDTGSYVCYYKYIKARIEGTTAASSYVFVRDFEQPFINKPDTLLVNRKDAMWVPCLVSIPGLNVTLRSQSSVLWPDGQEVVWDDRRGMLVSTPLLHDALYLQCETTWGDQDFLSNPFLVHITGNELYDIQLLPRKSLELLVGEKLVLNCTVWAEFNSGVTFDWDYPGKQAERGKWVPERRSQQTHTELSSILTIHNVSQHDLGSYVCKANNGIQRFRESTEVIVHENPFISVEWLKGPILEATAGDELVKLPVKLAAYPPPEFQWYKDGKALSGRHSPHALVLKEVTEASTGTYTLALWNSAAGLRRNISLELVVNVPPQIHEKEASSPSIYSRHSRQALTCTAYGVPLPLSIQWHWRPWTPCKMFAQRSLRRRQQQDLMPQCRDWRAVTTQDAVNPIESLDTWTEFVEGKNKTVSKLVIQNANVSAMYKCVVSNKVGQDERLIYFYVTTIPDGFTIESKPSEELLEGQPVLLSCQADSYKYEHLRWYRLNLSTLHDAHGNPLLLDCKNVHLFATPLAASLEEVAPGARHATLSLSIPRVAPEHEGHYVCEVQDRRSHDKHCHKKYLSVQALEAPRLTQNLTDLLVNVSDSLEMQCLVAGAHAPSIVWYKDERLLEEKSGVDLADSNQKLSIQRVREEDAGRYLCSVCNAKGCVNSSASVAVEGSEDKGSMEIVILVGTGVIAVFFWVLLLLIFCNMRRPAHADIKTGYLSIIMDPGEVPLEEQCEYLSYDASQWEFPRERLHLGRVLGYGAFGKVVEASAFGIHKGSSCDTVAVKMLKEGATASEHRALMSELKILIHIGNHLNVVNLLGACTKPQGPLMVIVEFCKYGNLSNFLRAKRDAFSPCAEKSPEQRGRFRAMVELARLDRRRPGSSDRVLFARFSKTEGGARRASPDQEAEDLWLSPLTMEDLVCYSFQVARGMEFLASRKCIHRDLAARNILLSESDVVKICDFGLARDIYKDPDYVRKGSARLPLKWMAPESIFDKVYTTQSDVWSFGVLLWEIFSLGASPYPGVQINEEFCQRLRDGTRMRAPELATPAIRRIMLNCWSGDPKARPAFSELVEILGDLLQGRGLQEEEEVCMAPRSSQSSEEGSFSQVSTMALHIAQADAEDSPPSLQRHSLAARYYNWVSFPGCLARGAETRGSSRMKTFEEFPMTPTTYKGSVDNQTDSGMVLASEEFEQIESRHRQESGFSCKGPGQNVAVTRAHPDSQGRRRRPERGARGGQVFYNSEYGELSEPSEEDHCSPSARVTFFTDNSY
Chain of human VEGFR2, over-expressed on HEK293 cells (human) (P35968 20-1356): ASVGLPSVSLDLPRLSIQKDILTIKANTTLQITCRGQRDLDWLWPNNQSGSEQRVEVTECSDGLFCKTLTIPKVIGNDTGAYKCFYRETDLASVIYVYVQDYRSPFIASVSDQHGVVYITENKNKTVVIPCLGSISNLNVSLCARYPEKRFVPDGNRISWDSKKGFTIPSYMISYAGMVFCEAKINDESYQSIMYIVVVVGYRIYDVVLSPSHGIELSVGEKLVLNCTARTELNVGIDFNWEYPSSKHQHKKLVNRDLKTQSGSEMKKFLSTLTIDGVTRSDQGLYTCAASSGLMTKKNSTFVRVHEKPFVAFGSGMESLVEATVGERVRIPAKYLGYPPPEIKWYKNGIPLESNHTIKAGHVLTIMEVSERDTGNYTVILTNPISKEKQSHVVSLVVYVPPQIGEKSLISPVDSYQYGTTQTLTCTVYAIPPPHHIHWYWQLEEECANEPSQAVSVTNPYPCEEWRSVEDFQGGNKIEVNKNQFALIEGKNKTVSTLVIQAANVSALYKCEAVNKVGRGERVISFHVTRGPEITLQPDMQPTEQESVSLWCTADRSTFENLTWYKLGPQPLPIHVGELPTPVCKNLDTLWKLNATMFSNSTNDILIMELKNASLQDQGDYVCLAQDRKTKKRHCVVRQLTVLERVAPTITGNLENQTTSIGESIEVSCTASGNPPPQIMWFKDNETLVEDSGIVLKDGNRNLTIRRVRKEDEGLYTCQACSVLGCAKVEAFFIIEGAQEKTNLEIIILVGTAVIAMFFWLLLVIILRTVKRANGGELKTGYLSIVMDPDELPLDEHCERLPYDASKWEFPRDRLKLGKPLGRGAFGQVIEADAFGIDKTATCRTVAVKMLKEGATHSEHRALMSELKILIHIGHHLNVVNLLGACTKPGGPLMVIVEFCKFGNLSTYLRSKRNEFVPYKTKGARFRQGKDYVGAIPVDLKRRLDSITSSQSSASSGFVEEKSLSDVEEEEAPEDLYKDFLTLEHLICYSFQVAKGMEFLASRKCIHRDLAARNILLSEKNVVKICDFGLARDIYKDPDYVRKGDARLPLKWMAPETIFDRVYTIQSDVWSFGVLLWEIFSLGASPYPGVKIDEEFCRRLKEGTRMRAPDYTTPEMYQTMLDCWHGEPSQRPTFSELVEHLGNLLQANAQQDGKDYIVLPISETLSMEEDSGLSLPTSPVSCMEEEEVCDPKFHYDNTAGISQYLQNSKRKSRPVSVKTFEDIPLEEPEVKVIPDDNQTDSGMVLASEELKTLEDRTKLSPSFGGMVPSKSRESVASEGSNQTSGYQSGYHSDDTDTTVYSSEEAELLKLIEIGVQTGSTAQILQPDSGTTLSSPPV

“Goat anti-human VEGFR2 (R&D Systems Catalog #AF357) (antibody)”: the Geomean over-expressing/Geomean parental (Fold Signal/Background) in test [1] was 28 fold. For “Goat anti-human VEGFR3 (R&D Systems Catalog #AF349) (antibody)”, the Geomean over-expressing/Geomean parental (Fold Signal/Background) in test [2] was 132 fold. Usually IC50 stands for the concentration at which inhibition is half-maximal. In the case of PlGF as used on mouse VEGFR1 (ligand), in test [3], the IC50 amounted to 0.163 nM and the Max % Inh. came to 100%.
